Assay results as given in US20220193132A1 (NATIONAL RESEARCH COUNCIL OF CANADA, published 2022).

T1: EGFRvIII fragment amino acid residues 1 to 18, displayed on yeast (human)
T1 construct: also called aa 1-18
T1 peptide: LEEKKGNYVVTDHGSCVR

T2: EGFRvIII fragment amino acid residues 3 to 18, displayed on yeast (human)
T2 construct: also called aa 3-18
T2 peptide: EKKGNYVVTDHGSCVR


Key:
[1] = molecular target: T3, EGFRvIII, full length, overexpressed on glioblastoma cells (human, UniProt P00533 298-623); assay: cell-based or functional assay
[2] = molecular target: T3, EGFRvIII, full length, overexpressed on …; assay: cell-based or functional assay; remark: listed apart in the source
[3] = molecular target: T4, wild type human EGFR, full length, overexpressed on U87MG cells (human, UniProt P00533 25-1210); assay: cell-based or functional assay
[4] = molecular target: T3, EGFRvIII, full length, overexpressed on …; assay: cell-based or functional assay; remark: listed apart in the source
[5] = molecular target: T4, wild type human EGFR, full length, …; assay: cell-based or functional assay; remark: listed apart in the source
[6] = molecular target: T5, recombinant human EGFRvIII protein (extracellular domain), native (human, UniProt P00533 298-623); assay: ELISA Exp 1, mAb supernatant
T5 construct: also called hEGFRvIII
Protocol: (§1) Pre- and post-immune sera titers of animals were assessed by ELISA on recombinant EGFRvIII protein. Unless otherwise stated, all incubations were performed at room temperature. […] Microplates were washed three times in PBS and blocked for 30 min with PBS containing 1% bovine serum albumin (BSA, Sigma Cat #A7030). Blocking buffer was removed and 25 μl of serial dilutions of sera samples were added. […] After a 1-h incubation, microplates were washed 4 times and 25 μl of p-nitrophenyl phosphate (pNPP) substrate (Sigma-Aldrich Canada Co., Oakville, ON) at 1 mg/ml in carbonate buffer at pH 9.6 was added and further incubated for 30 min.
(§2) Antigens at 1-2 mg/ml were incubated at 95° C. for 5 min in PBS containing DTT at a final concentration of 40 mM. They were then incubated on ice for 5 min and diluted at their final coating concentration for ELISA purpose.
(§3) ELISA was performed as described above (serum titer determination) using 25 μl of mAb supernatant (Exp 1) or purified mAb at 1 μg/ml (Exp 2).

[7] = molecular target: T6, recombinant human EGFRvIII protein (extracellular domain), denatured (human, UniProt P00533 298-623); assay: ELISA Exp 1, mAb supernatant
T6 construct: Same protein as m21 after 95 C for 5 min in PBS with 40 mM DTT (denatured, reduced); also called EGFRvIII Denatured
Protocol: as §1, §2, §3

[8] = molecular target: T7, recombinant human wild type EGFR protein (extracellular domain), native (human, UniProt P00533 25-645); assay: ELISA Exp 1, mAb supernatant
T7 construct: also called wt EGFR; EGFR WT
Protocol: as §1, §2, §3

[9] = molecular target: T8, recombinant human wild type EGFR protein (extracellular domain), denatured (human, UniProt P00533 25-645); assay: ELISA Exp 1, mAb supernatant
T8 construct: Same protein as m23 after 95 C for 5 min in PBS with 40 mM DTT (denatured, reduced); also called wt EGFR Denatured
Protocol: as §1, §2, §3

[10] = molecular target: T1, EGFRvIII fragment amino acid residues 1 …; assay: yeast surface display, flow cytometry
[11] = molecular target: T5, recombinant human EGFRvIII protein …; assay: ELISA Exp 2, purified mAb 1 ug/ml;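 note: ELISA of purified mAb binding to plate-coated antigen, native or heat/DTT-denatured, with pNPP substrate developed for 30 min and incubations at room temperature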
Protocol: as §1, §2, §3

[12] = molecular target: T6, recombinant human EGFRvIII protein …; assay: ELISA Exp 2, purified mAb 1 ug/ml;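 note: ELISA of purified mAb binding to plate-coated antigen, native or heat/DTT-denatured, with pNPP substrate developed for 30 min and incubations at room temperature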
Protocol: as §1, §2, §3

[13] = molecular target: T7, recombinant human wild type EGFR …; assay: ELISA Exp 2, purified mAb 1 ug/ml;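 note: ELISA of purified mAb binding to plate-coated antigen, native or heat/DTT-denatured, with pNPP substrate developed for 30 min and incubations at room temperature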
Protocol: as §1, §2, §3

[14] = molecular target: T8, recombinant human wild type EGFR …; assay: ELISA Exp 2, purified mAb 1 ug/ml;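 note: ELISA of purified mAb binding to plate-coated antigen, native or heat/DTT-denatured, with pNPP substrate developed for 30 min and incubations at room temperature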
Protocol: as §1, §2, §3

[15] = molecular target: T4, wild type human EGFR, full length, …; assay: flow cytometry dose-response, U87MG-EGFRwt cells
Protocol: Prior to analysis, cells were plated such that they were not more than 80% confluent on the day of analysis. Unless otherwise stated, all media are kept are 4° C. and all incubations are performed on wet ice. Cells were washed in PBS, harvested by the addition of cell dissociation buffer (Sigma), centrifuged and resuspended in complete medium at a cell density of 2×10⁶ cells/mL. Fifty μL/well of cells were distributed in a polypropylene v-bottom 96 well plate and serial 1/3 dilutions of purified mAbs starting at 100 nM were added and incubated for 2 hours. […] Cells were washed and re-suspended in medium containing Propidium iodide to exclude dead cells from analysis. Samples were filtered through a 60 μm nylon mesh filter plate (Millipore, Ireland) to remove cell aggregates. Flow cytometry analyses were performed on 2,000 viable single-cells events gated on forward scattering, side scattering parameters and propidium iodide dye exclusion using a BD-LSRFortessa flow cytometer (Becton-Dickinson Biosciences, CA, USA) and a standard filter set using BD FACSDiva™ acquisition software, according to manufacturer's instructions.
Specific detection of antibody binding was calculated as the mean fluorescent intensity of binding to each primary antibody after background level subtraction of the mean fluorescent intensity of binding of mouse IgG control. The data were analyzed with GraphPad Prism v 6.0 software using one-site specific binding with Hill slope non-linear regression curve fit model to determine Bmax (maximum specific binding) and Kdₐₚₚ (concentration needed to achieve a half-maximum binding at equilibrium) for each mAb tested.

[16] = molecular target: T3, EGFRvIII, full length, overexpressed on …; assay: flow cytometry dose-response on U87MG-EGFRvIII cells, apparent Kd
[17] = molecular target: T2, EGFRvIII fragment amino acid residues 3 …; assay: yeast surface display, flow cytometry

Binder	IC50 of growth inhibition, U87MG EGFRvIII cells [1]	% internalization (pHrodo surrogate assay, vs 225 mAb) [2]	% internalization (pHrodo surrogate assay, vs 225 mAb) [3]	% survival (DM1 secondary-conjugate ADC surrogate assay, vs mouse IgG) [4]	% survival (DM1 secondary-conjugate ADC surrogate assay, vs mouse IgG) [5]	ELISA absorbance 405 nm [6]	ELISA absorbance 405 nm [7]	ELISA absorbance 405 nm [8]	ELISA absorbance 405 nm [9]	binding result [10]	ELISA absorbance 405 nm [11]	ELISA absorbance 405 nm [12]	ELISA absorbance 405 nm [13]	ELISA absorbance 405 nm [14]	binding result [15]	Kd [16]	binding result [17]	IC50 of growth inhibition, DKMG EGFRvIII cells [1]
hFc-4E11-MMAE (antibody, human IgG1, kappa, V domains shown, MC-vc-PAB-MMAE on reduced interchain cysteines) VH: DVQLQESGPGLVKPSQSLSLTCTVTGYSITSDYAWNWIRQFPGNKLEWMGYIGYNGRTSYNPSLKSRISITRDTSKNQFFLQLNYVTTEDTATFYCARLGRGFAYWGQGTLVTVSA VL: DILMTQSPSSMSVSLGDTVSITCHASQGINSNIGWLLQKPGKSFKGLIYHGTNLEDGVPSRFSGSGSGTDYSLTISSLESEDFADYYCVQYAQFPYTFGGGTKLEIKR	0.2 nM	–	–	–	–	–	–	–	–	–	–	–	–	–	–	–	–	–
F266-11C8 (antibody, V domains shown, Mouse hybridoma mAb; also called 11H5 (11C8)) VH: QIQLVQSGPELKKPGETVKISCKASGYTFTTAGMQWVQKMPGKGFKWIGWINTHSGDPKYAEDFKGRFAFSLETYASTAYLQISNLKNEDTASYFCARTHIYDGYNYAMDYWGQGTSVTVSS VL: DVVMTQTPLSLPVSLGDQASISCRSSQSLVYSNGNTYLHWYLQKPGQSPKLLIYKVSNRFSGVPDRFSGSGSGTDFTLKISRVEAEDLGVYFCSQSTHVPFTFGSGTKLEIK	–	136%	< 2%	55%	> 98%	1.56 A405	2.1 A405	0.011 A405	0.009 A405	binds	1.72 A405	1.71 A405	0 A405	-0.001 A405	no binding (tested: 100 nM highest concentration)	3.5 nM	–	–
F266-11B1 (antibody, V domains shown, Mouse hybridoma mAb) VH: QIQLVQSGPELKKPGETVKISCKASGYTFTTAGMQWVKKMPGKGFKWIGWINTHSGDPKYAEDFKGRFAFSLETYASTAYLQISNLKNEDTASYFCARTHIYDGYNYAMDYWGQGTSVTVSS VL: DVVMTQTPLSLPVSLGDQASISCRSSQSLVYSNGNTYLHWYLQKPGQSPKLLIYKVSNRFSGVPDRFSGSGSGTDFTLKISRVEAEDLGVYFCSQSTHVPFTFGSGTKLEIK	–	131%	< 2%	62%	> 98%	1.67 A405	2.2 A405	0.034 A405	0.032 A405	binds	1.72 A405	1.77 A405	0.002 A405	0.004 A405	no binding (tested: 100 nM highest concentration)	2.2 nM	–	–
F266-11H3 (antibody, V domains shown, Mouse hybridoma mAb) VH: QIQLVQSGPELKKPGETVKISCKASGYTFTTAGMQWVQKMPGKGFKWIGWINTHSGDPKYAEDFKGRFAFSLETYASTAYLQISNLKNEDTATYFCARTHIYDGYNYAMDYWGQGTSVTVSS VL: DVVMTQTPLSLPVSLGDQASISCRSSQSLVYSNGNTYLHWYLQKPGQSPKLLIYKVSNRFSGVPDRFSGSGSGTDFTLKISRVEAEDLGVYFCSQSTHVPFTFGSGTKLEIK	–	131%	< 2%	62%	> 98%	1.66 A405	2.1 A405	0.053 A405	0.041 A405	binds	1.78 A405	1.79 A405	0.001 A405	0 A405	no binding (tested: 100 nM highest concentration)	2.5 nM	–	–
F263-1A8 (antibody, V domains shown, Mouse hybridoma mAb) VH: EVQLQQSGAELVRPGALVKLSCKASGFNIKDYYMHWVKQRPEQGLEWIGWIDPENGNTIYDPKFQGKATITADTSSNTAYLQLSSLASEDTAVYYCARGWLLLWGQGTTLTVSS VL: not shown	–	100%	< 2%	65%	> 98%	1.67 A405	2.09 A405	0.016 A405	0.013 A405	–	1.79 A405	1.71 A405	0.002 A405	0.001 A405	no binding (tested: 100 nM highest concentration)	2 nM	binds	–
F260-5G6 (antibody, V domains shown, Mouse hybridoma mAb) VH: EVQLQQSGAELARPGASVKMSCKASGYTFTSYWMHWVKQRPGQGLEWIGAIYPGNSDISYNQKFKGKAKLTAVTSATTAYMELSSLTNEDSAVYYCTLYDYDPDYWGQGTTLTVSS VL: not shown	–	102%	< 2%	55%	91%	1.45 A405	1.94 A405	0 A405	0.005 A405	–	1.74 A405	1.74 A405	0.001 A405	0 A405	no binding (tested: 100 nM highest concentration)	4.2 nM	binds	–
hFc-5G6-MMAE (antibody, human IgG1, kappa, V domains shown, MC-vc-PAB-MMAE on reduced interchain cysteines) VH: EVQLQQSGAELARPGASVKMSCKASGYTFTSYWMHWVKQRPGQGLEWIGAIYPGNSDISYNQKFKGKAKLTAVTSATTAYMELSSLTNEDSAVYYCTLYDYDPDYWGQGTTLTVSS VL: not shown	0.3 nM	–	–	–	–	–	–	–	–	–	–	–	–	–	–	–	–	0.3 nM
hFc-13.1.2-MMAE (antibody, human IgG1, kappa, V domains shown, MC-vc-PAB-MMAE on reduced interchain cysteines) VH: QVQLVESGGGVVQPGRSLRLSCAASGFTFSSYGMHWVRQAPGKGLEWVAVIWYDGSNKYYVDSVKGRFTISRDNSKNTLYLQMNSLRAEDTAVYYCARDGWQQLAPFDYWGQGTLVTVSS VL: not shown	1.9 nM	–	–	–	–	–	–	–	–	–	–	–	–	–	–	–	–	2.5 nM
